{
  "source": "patent US20230203124A1",
  "key": {"[1]": {"target": "wild-type ERBB2IP 25-AA long peptide on autologous B cells (HLA-DQB1*0601) (human)"}, "[2]": {"target": "mutated ERBB2IP 25-AA long peptide presented by HLA-DQB1*0601 (human)"}, "[3]": {"target": "mutated ALK 25-AA long peptide on autologous B cells (HLA-DQB1*0601) (human)"}},
  "data": [
    {"substance": "Mock-transduced autologous open-repertoire peripheral blood T cells (cells without a defined receptor)", "values": [
      {"measurement": "% IFN-γ+/mTCRβ- cells, intracellular IFN-γ by flow cytometry", "setting": "[1]", "value": 0, "unit": "%"},
      {"measurement": "% IFN-γ+/mTCRβ- cells, intracellular IFN-γ by flow cytometry", "setting": "[2]", "value": 0, "unit": "%"},
      {"measurement": "% IFN-γ+/mTCRβ- cells, intracellular IFN-γ by flow cytometry", "setting": "[3]", "value": 1, "unit": "%"}
    ]}
  ]
}
